# Reference: patent publication US20260125665
substance,measurement,setting,value
Thrombin,"cleavage by thrombin (reducing SDS-PAGE, Western blot with anti-human UPA antibody)",Microlyse variant 1.1,"For both ML 1.0 and ML 1.1 a distinct band at around 35 Kd is observed, indicating cleavage of Microlyse by thrombin."
same,"cleavage by thrombin (reducing SDS-PAGE, Western blot with anti-human UPA antibody)",Microlyse variant 1.0,"For both ML 1.0 and ML 1.1 a distinct band at around 35 Kd is observed, indicating cleavage of Microlyse by thrombin."
